# Assay: soluble on expression in E. coli; label from the status in PepcDB or PDB records
row,Sequence,soluble on expression in E. coli
1,MSQWHHPRSGWGRRRDFSGRSSAKKKGGNHIPERWKDYLPVGQRMPGTRFIAFKVPLQKSFEKKLAPEECFSPLDLFNKIREQNEELGLIIDLTYTQRYYKPEDLPETVPYLKIFTVGHQVPDDETIFKFKHAVNGFLKENKDNDKLIGVHCTHGLNRTGYLICIYLIDVEGVRPDDAIELFNRCRGHCLERQNYIEDLQNGPIRKNWNSSVPRSSDFEDSAHLMQPVHNKPVKQGPRYNLHQIQGHSAPRHFHTQTQSLQQSVRKFSENPHVYQRHHLPPPGPPGEDYSHRRYSWNVKPNASRAAQDRRRWYPYNYSRLSYPACWEWTQ,soluble
2,MSLQWKPAGDKIRTFWAEKVDVNNVLPEYPRPIMERSDWQNLNGLWNYAVLPLGQSAPTTFDGKILVPFAIESSLSGVGKTLGMEKELWYQRAFNIPSSWRGKRVLLHFGAVDWKTEVWVNNIKVGEHTGGFTPFTFDVTEALEKSTNTLTVKVWDPTDKGFQPRGKQVSNPRGIWYTPVSGIWQTVWLEPVSEHYIAGIKTTPDIDTNKIKVKVETDSNRQSDRLEVKVFDGKHLVAMGTSINGLPVEIPMPADAKLWSPDSPFLYQMEVSLISAGKLVDQIKSYVAMRKYSIKRDEHGIVRLQLNNKDLFQFGPLDQGWWPDGLYTAPTDEALRYDIEKTKDFGFNMIRKHIKVEPARWYTYCDQIGLIVWQDMPSGDKSPEWQNRKYFEGTELTRSAESEETYRKEWKEVIDCLYSYPCIGTWVPFNEAWGQFKTQEIAEWTKQYDPSRLVNPASGGNHYTCGDMLDLHHYPGPEMFLYDAQRATVLGEYGGIGLVLKDHLWEPNRNWGYIQFNTSAEATAEYLKYAGILKDMISRGFSAAVYTQTTDVEVEVNGLMTYDRKVIKLDESKLKKMNTEICNSLKEGHHHHHH,soluble
3,MQKLILSALFVALVAADCNMRCPDGYMSFKRTPTPKNSMTGMAILSDTLISPNQAKKVCEKDGSILTSFENFDERTKLSTVLRDFLTAKKLDRGSMIVDGHRLKNCETTDKTVLATVECRNSSSGFTTDEKHTDNTFMWKSWSATEPGQTIFEKSIESCLQLSISQFPARSELINDVFCNYVKHPENEGASDLWNYGAVCGRFPEWI,not soluble
4,MTSTPEFLKQLDYEQLKYCRELCDNRIRAIEAEEKKMAWAVTDGGINYGWFRTEDYMKAVECLVATAAERWEESDKADPSGRGWLDLSIRGSRLPVSEYEALFADGQWG,not soluble
5,SLFHLLGAQQNQKLKRRRFFCPVCGGELAVKLGLQKAPHFAHKQNKSCAIDIEPESAYHLEGKRQLYVWLKTQRASPILEPYIRTINQRPDVMARIKEHMLAVEYQCATIAPDVFQKRTEGFKQEGIIPQWIMGYSRLKRTASSFYQLSTFHWQFINASPYRELICYCPERRSFLRLSHIIPFYTNHSYSSVQTIPIHRAGAGDLFFTEPKPSIQYSGWTKAIHRFRHKPHRFNSKETNRLRLLFYEKRQTPFSFLPTEVFVPVRKGAVFKSPVFVWQGFLYLFMTDLGGKRAPIRFSAVLQQCKLHIHNKNIALRSECSEECLSEAVKQYIDFLCKKGFLRETQKEVYVLNQPAGGIHSMQDLIERDRSCFIE,soluble
6,IGQVKYNIGGSLSDAWSKVLELANNENVPNEGKNENRLIGMPRQALYVYQTDGIFQSADEVAAYYEKYYWNADHSGPKANNILPAPQEASTNTLRPGARKVVDLNGDGAITKDDLYYAGDMAPRLTFGFKLGLEWKGIDFSAFFQGVGKQVLLRGGYLAAPWTTNYVLQNKNFAGKMWSENNRDAEYTIASRDQNFNKWNYNNKDVSVQNNRYVRLKSLVVGYSLPQKWISKAGLSKLRVYFSGDDLWEWTKVKDGYDPEYGENSNNTFPFSRLLTFGVDVTF,not soluble
7,MGSDKIHHHHHHMTSVSPHKKAKALKPTSRRPAKELCSECGLCDTYYIHYVKEACAFINQQIGELEVETHTRSRHLDNPDELYFGVHQDMIAARKQQPIEGAQWTGIVSSIAIEMLNRGLVEGVVCVQNTKEDRFQPMPIIARTPEEILAARVNKPTLSPNLSVLEQIEKSGMKRLLVIGVGCQIQALRAVEKQLGLEKLYVLGTPCVDNVNRAGLQKFLETTSRSPETVVHYEFMQDFRVHFKHEDGSSETVPFFGLKTNKLKDVFAPSCMSCFDYVNSLADLVVGYMGAPFGWQWIVVRNDTGKEMLDLVQDQLDTQPVTSKGNRKEAVQQSIPAYDKGVTLPMWAAKLMGVVIEKIGPKGLEYARFSIDSHFTRNYLYVKRNHPEKLEAHVPEFAKRIVEQYKLPE,not soluble
8,MGSDKIHHHHHHMAESETGDKAGQASVKTALRVIEIMEIYAREGRSLTLTELAKLLGAPMSSCLGLIRTLASLGYLYETGRRQGYYPTSRLLNIAQRISRNDPLLERVQPVLETLRDATGETVIFGKLQDDGRVLYLEVRESQNPVRYTATPGELRDVHINSIGRAILGAMTDAARDAALAKVSFQPRTGRTVASREALEREIAMWQQQGWYPNFGESFPDLGAIAVPVEIGGAVYGMSVAGPIHRVESSVDPIVAALLRGQDALRT,not soluble
9,MSGIPSQGVASGMREAARALLAVLEPEQVRELRAGPDRLDTPELREWTYLPGPRPGLSTEGLDGRQREVVDALLTTAHSAAGAELVRGAIEVERHPRARAGHPGPDRYWVRLLGDPGGDEPWGWRLNGHHLAVHVLVTAAGVRVTPHFVGAEPARTGNGPRPGLRPLGPEEDLARELITSLGGTARASALFAATPPDDILTRADPFADPGLLPEGLRYDRLAPGQQRLLERLVGRYLDRAPEAYARECWSDAVRRGLGSLSFAWAGGLAPGDRHYYCVRAPDFLIEYDNTQDDGNHAHSVWRHVRHDWGTDLLRGHYTEQHFLEHHHHHH,not soluble
10,MSISSIPSSPSISGSSTSSTAPNISFCYTWTTKLKTRKTADGEATILSISPKFATVHQLISFQWNIRIHATSEMNEEDEEVDYVAVDLYLVDGPVNEVNVMAEVGALEKTSTATLGSLPAGQKEAKTIKMQKGSGCEITDADRECVSKYLKENTRLFEPSTYLDAISPTPRASFLTANYNARVNSKVWKRRSRKRNGRIERRVLSDKEKTKYESKVQMILDEEREKLCDKREMLKEDDGGSRRASLISQFRENQHESVLDDHMFKRILVSCCESCEQRRLSFMCDSRTEDDSEGEDCEDNEEDDGEGGSDDEEDDGEEPHFECDKSDKEHVHDMLANLYFNKVVLPEMEYVEDFVDFLIDAELNDLPVLKRACERYLCSELNSKKDIGTCLLLDLLFNSIVFNLPVMKSMTLTELANRTHEFVDADTLLDQEEFKNLDKRMRTLADRNLVELIEQCVTFRDQKARVRVLPTAESFDISFDLTNQ,not soluble
11,MGSDKIHHHHHHMLELLEPIAIFTHVARAGSFSAAARRLGISKSKVSTQVADLEHRLGVQLIQRTTRSLSLTEAGHLLYLQGEELLRDAEQAIASVHNLNDATRGVLKVGISQSFGVMHIIPALPSFMAKHPELELQVSLLDHKVDVVSEGLDLLLTMSEQLPLGMVARPLMKCQFLLVASPGYIAQHGEPTRPEQLVDHNCLVYQGEWHEHSMWQFKKGDDYCEIGVSGNFRVDNAPALKSAAISGLGVVYLASYLMEDEITKGTLVPLLKDWQLTHHLPLQAVYPRRKHLAPKVSSFIEFIKDHIGTPPYWDAPYVELFSKRQ,not soluble
12,MGSDKIHHHHHHMVMERGEIIGIVLQKSEANEMQGLIRADEEISVGQLLLVDDSEKLSLVRVENYEFLNEFFDEKGEIAKSILKEPSIYEILDMNTIIKATLHLIKKYDHNTTPKPGSFVRRLPEIKSEKELLSFYGIKNKKGLIEYGALAGSEIPLLLDLNAITMHMGVFGETGSGKSYNMRYLIKLLSNIKIGDKITALPMIVIDANGDYIDLASTNLDIVSKGRGWIKRYILKDPKEQNDIKLTIDLSIFTPRELSEFIMSLKYGEASYNTLQLNFLEQVLANHESKEYNTLLGSAIGIETLRNEILTMAQNKDIGITTGTARGIASALEIFKNKVISRLQLVNSSASLTENTLEVIWRNRGLAIIDFSADGSPGVDVLTKQLIVSYITRLIFNYLTRSKYNGNQRFLGFVIEEAQNYIPSIDYPVNANLTKDVLVTLATQGRKFGASLILVSQRPAFIDKYVLSMINTFFFHRIYHEDVRYVMSASGGLPESLTKNLTSLDTGYVIVSGLMSIMKSPALVRIPWDPRLGSYAGNVERIDLILSEG,not soluble
13,MGISSSAPESLGFDTVLPPHLRQHSHPPAGISPKRFLCRDLWPAELPSPAVSSAVSGPTWPEGISAPVFGKQTHVPQRTGSQDCHSCDPTLPEWERKIPP,not soluble
14,MGSDKIHHHHHHMTQPTLPPPPRTRFTVSDFNRMGGSVGFNYRLPGQEGGGTGIENLCIAEGRVEECEIRPGITLIVSDVHVYHHYESTSVMTPRFSAIVMLQGQARARLDKQDDVRLAAQSGLNALYGDTVAMTGVHPAGQRLRSVNLSVTAPEAADDEYTSEIIWKLMQSSAPRLRRWPVPHHLLLSIEHLLECDWDQPLRNMVREGVGTQLLAHALAALQHAPVTHRGLTQRDRQLLERVRERLHEAPGEDHTLDDLARLACMSPSTLRAKFHAVYHRSVFSWLRERRLEVAREQLARGWSVQQAAHFVGYRHATNFATAFRERYGVAPSQLG,not soluble
15,MGSDKIHHHHHHMYPFVDRKEELKALKERLTRENFELIVIYGRRRVGKTRLVLEAVRDLPHVYYLAVEGNNLRHFRETAERVFPEVRYSREDWEGTLHALKGKIIVIDEFPNLIKENPRVLSLFQRVIDLDLSNSNTKMILLGSSVSMMTEKVLSYKSPLYGRRTGSMKLKPMGFFSLRVFFPTASWEELVEIYGMTDGIPFYITQVKLPFWEWLEEELSSPVSFFRDEVDFLLKYEFSEVSTYKRILEAIALGKTTPKEIRDFTGLRHSDISPYLRNLIEADLIVREVPVTEKGTSKRGRYYIADNFLAFWFRFIFPNLSRIEEGTFSVEEIRDSYDHYLGLVFEKVARQFLVKLNKAGNLPFKFTKIGRWWHKNEEIDLVALNEREKRALFVEVKWKSLSGREARGILWDLERKSELVGLEGWEKHYGLVAKEIRNKNALKSEGWLVWDLGDFERLISPGEISYL,not soluble
16,MLFKRPDTETLYFALVNKDPAYEGVAYVCVTSTKIFCRFTCTARKPKIENCRFRETITECLEAGFRPCKRCKPMLSYGTPDGTVTALLTALENEPARRWREEDVVALGHDPSTVRRSFKRRFGMSFLEIARLRRVGDAAESLASGEAVIGAQIDAGYESGSGFRSAINQLFGTSPAAMKGRGFLKGDWIDTPIGPMLAVADDHALHLLEFADRPALPAELKRLKARTGADMVLGRTAVTGQIAAELAAYFAGRSGSFETRLAGHGTPFERDVWRNLREIPAGEIVSYSSLATAMERPTAVRAVARANGANQLAIVVPCHRVLGADGSLTGYGGGLWRKKWLIEHERRMARGLEHHHHHH,soluble
17,MPVTRPAKINTYTRIIDASLALFNEEGERNISTNHIAAHLGISPGNLYYHFRNKDEIIVQLFKRYSEALLAYLNEAVLPSDVEDSINYMAGIYDVMWEYRFLFSDVNTLLARSAELLGEHNTFTQAKVSPLLVNLLTQLNGLNIIQADQTAMNDLAVNMWMVTKYWFDFDSSLRGRTKLTEDSKARGIRRTLSLLRPYLLPEHRKKYDRKIGNGNP,soluble
18,MNDNEIGNPPIKALIVFRENGDTDNLFVPILCDAIRTTGIDVRCSTNEFWNSDTPYDIIHFQWPEEVMEGNCDDPDRICRLKECIAFFRSRGARFVYTRHNVRPHDANEVIGRAYDIIEEQSDVVVHMGRYSLDEFAAKHADSRNVIIPHPIYQYTYKEDISVERARQYLNLPQEAFIVTSFGKFRNREERRMVTGAFRKWDEAKKFLLAPRLYPFSRFNRYGSNFFKRWTSRAGYYLLIPLLNRLRRMHAGASDEPIDNCDLPYYMAASDVIFIQRKDILNSASIPLAFLFHKVVIGPNIGNIGEILQDTGNPVFHPDNQFDIIRALEAARQLSARRKGEDNYAYAIENMNSGKIGKEYAELYRNLANLSL,not soluble

# From the DeepSol protein solubility set
